Reference: PMC4726114, “DSF Guided Refolding As A Novel Method Of Protein Production” (Scientific Reports, 2016)

Biological target: the molecule itself
Assay: SEC; analytical size-exclusion chromatography of refolded irisin; apparent molecular weight 28 kDa

B1: human irisin (FNDC5 residues 32-143) (natural protein, UniProt Q8NAU1 80-191, looked up)
chain: DSPSAPVNVTVRHLKANSAVVSWDVLEDEVVIGFAISQQKKDVRMLRFIQEVNTTTRSCALWDLEEDTEYIVHVQAISIQGQSPASEPVLFKTPREAEKMASKNKDEVTMKE
notes: irisin, human FNDC5 residues 32-143
  stoichiometry N: 2
